This passage reports Kd results from paper PMC6182170, “A protein–protein interaction underlies the molecular basis for substrate recognition by an adenosine-to-inosine RNA-editing enzyme”.

The target of the series is T1, ADR-1 WT (Caenorhabditis elegans, UniProt Q9U3D6 1-964).
T1 sequence: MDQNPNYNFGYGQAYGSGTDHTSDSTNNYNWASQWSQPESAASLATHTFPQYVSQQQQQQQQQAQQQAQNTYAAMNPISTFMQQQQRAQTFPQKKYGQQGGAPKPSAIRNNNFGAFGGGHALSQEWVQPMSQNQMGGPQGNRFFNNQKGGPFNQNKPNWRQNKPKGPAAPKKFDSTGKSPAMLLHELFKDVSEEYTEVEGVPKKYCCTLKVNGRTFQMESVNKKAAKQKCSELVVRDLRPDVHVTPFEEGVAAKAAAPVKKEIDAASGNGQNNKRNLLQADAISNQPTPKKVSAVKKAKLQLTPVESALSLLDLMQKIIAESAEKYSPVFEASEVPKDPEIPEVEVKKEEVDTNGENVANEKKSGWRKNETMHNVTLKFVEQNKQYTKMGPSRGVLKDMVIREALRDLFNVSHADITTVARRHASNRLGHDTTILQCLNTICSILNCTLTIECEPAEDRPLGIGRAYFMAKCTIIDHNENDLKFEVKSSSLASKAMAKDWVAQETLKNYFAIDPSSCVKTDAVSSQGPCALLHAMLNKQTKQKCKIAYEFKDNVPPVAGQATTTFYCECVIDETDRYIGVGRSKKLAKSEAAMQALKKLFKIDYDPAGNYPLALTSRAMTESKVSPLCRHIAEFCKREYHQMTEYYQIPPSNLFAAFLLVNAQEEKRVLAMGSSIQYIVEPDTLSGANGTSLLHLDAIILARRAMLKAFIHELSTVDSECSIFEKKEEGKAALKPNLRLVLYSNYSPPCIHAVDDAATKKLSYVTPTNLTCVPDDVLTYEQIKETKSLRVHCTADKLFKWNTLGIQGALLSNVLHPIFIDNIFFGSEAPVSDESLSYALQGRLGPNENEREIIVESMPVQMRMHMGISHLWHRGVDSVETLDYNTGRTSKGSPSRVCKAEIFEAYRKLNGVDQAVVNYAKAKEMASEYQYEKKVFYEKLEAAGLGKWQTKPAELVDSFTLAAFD
As to the kind of experiment: EMSA; apparent Kd; EMSA: 20 pM dsRNA, 50 mM KCl, 10 mM Tris-HCl pH 8.0, 10% glycerol, 1 mM MgCl2, 0.5 mM DTT, on ice 30 min; native 6% gel, 0.5x TBE, 4 C. The conditions noted are these: protein: recombinant; tags: N-terminal 6xHis (TEV site); label: 5' 32P on ssRNAs (PNK); imperfect duplex; printed strands 45 and 46 nt. (In EMSA bound probe runs differently from free probe, usually more slowly.)

B1: lam-2 3'UTR 46 bp dsRNA (dsRNA)
RNA 1: AGACACACAUACAAAAUUUACAAAAAUUGUUAAUUGACAAAAUAC
RNA 2: GUGUUUUGCCAAUUAACGAUUUUUUGUAAAUUUUAUAUGUGUCUCU
For the molecule B1, the Kd came to 1.75 ± 0.15 nM.
